The test concerns the target T1, proPpiA (UniProt P0AFL3).
T1 sequence: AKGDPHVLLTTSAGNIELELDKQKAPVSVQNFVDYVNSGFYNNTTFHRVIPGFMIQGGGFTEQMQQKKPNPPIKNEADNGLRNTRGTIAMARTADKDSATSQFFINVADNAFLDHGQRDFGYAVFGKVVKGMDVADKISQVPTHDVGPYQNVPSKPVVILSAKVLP

SecB, sequence (P0AG86 whole entry): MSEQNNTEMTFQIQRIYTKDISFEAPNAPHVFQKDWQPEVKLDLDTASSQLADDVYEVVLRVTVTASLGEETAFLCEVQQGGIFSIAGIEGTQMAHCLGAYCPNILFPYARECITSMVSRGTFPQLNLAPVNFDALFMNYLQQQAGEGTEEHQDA

“SecB (from UniProt P0AG86 1-155) (natural protein)” displayed a solubility of proPpiA after dilution from urea (18 µM protein, 30 min, centrifugation at 20,000× g), with 108 µM SecB; buffer control ~30% soluble of 70%.

Source of the values: paper PMC12691745.
